Patent publication US20110086806A1 (published 2011)
Positions count from the first letter of the chain named. Names and notes keep the numbering of the source.

B1: 105-08-1C2 ATRIMER complex (designed binder)
chain: EPPTQKPKKIVNAKKDVVNTKMFEELKSRLDTLAQEVALLKEQQALQTVCLKGTKVHMKCFLAFTQTKTFHEASEDCISRGGTLSTPQTGSENDALYEYLRQSVGNEAEIWLGLNGSRATDTWVDMTGARIAYKNWETEITAQPDGGFGYFGENCAVLSGAANGKWFDKRCRDQLPYICQFGIV
B2: 105-08-1B1 ATRIMER complex (designed binder)
chain: B1 chain with R118P, A119R, D121Q
modifications: ATRIMER complex: homotrimer of three copies of this chain, joined by the tetranectin coiled coil
notes: not shown: C-terminal tag: Myc/His (pANA4) or HA-StrepII (pANA10)
B3: 105-08-1C3 ATRIMER complex (designed binder)
chain: B1 chain with R118Q, A119L, F148W
B4: 105-08-1A10 ATRIMER complex (designed binder)
chain: B1 chain with R118S, A119I, F148W
notes: not shown: C-terminal tag: His/Myc (pANA4) or HA-StrepII (pANA10)
B5: 105-08-1C4 ATRIMER complex (designed binder, not shown: small tags and cut ends)
chain: B1 chain with R118T, A119L, F148W
B6: 105-08-1B7 ATRIMER complex (designed binder)
chain: B1 chain with R118P, A119R
B7: 105-08-1B10 ATRIMER complex (designed binder)
chain: B1 chain with A119H
notes: as for B4
B8: 105-08-1A7 ATRIMER complex (designed binder)
chain: B1 chain with R118V, A119R, D121N
modifications: ATRIMER complex: homotrimer of three copies of this chain, joined by the tetranectin coiled coil
notes: as for B2
B9: 001-69.4G8 ATRIMER complex, mammalian-cell produced (designed binder, not shown: small tags and cut ends)
chain: B1 chain with A119R, T120S, D121G, T122V, Y150V
modifications: Homotrimer of this chain (ATRIMER complex); produced in HEK293 cells, glycosylation possible.
notes: Mammalian-cell produced material; also called 4G8 m; 4G8 TN m
B10: 056-41.B12F ATRIMER complex (designed binder)
chain: B1 chain with R118V, A119R, T120S, D121A, F148Y, Y150V
modifications: Homotrimer of this chain (ATRIMER complex).
notes: not shown: A possible extra N-terminal Ser from the ompA junction is left out
B11: 001-87.A5F ATRIMER complex (designed binder)
chain: B1 chain with R118V, A119R, T120S, D121A
modifications: Homotrimer of this chain (ATRIMER complex).
notes: also called Atrimer A5F; not shown: A possible extra N-terminal Ser from the ompA junction is left out
B12: 001-87.A4A ATRIMER complex (designed binder)
chain: B1 chain with G116W, S117T, R118L, T120K, D121N, T122L, F148L, G149F, Y150G, F151R
notes: as for B4
B13: 056-41.B9B ATRIMER complex (designed binder)
chain: B1 chain with G116A, S117P, R118P, A119D, T120L, D121G, T122L, F148W, Y150V, F151W
notes: as for B4
B14: 001-89.C3C ATRIMER complex (designed binder)
chain: B1 chain with G116A, S117N, A119R, T120R, D121T, T122M, F148M, Y150V, F151W
notes: as for B4
B15: 001-69.4D4 monomeric CTLD (designed binder)
chain: ALQTVCLKGTKVHMKCFLAFTQTKTFHEASEDCISRGGTLSTPQTGSENDALYEYLRQSVGNEAEIWLGLNGSVRGRTWVDMTGARIAYKNWETEITAQPDGGIGVWGENCAVLSGAANGKWFDKRCRDQLPYICQFGIV
notes: C-terminal tag not specified
B16: 001-89.C7F monomeric CTLD (designed binder)
chain: B15 chain with V74L, R75L, G76T, R77G, T78L, I104Y, V106A
B17: 001-87.A9E monomeric CTLD (designed binder)
chain: B15 chain with V74A, R75L, G76T, R77N, I104L, V106Y
notes: C-terminal tag not specified
B18: 001-69.4G8 monomeric CTLD (designed binder)
chain: B15 chain with V74R, G76S, R77G, T78V, I104F, W107F
notes: C-terminal tag not specified; not shown: C-terminal tag: 6xHis (pANA1), HA-His (pANA3) or HA-StrepII (pANA12)
B19: 001-87.A8E monomeric CTLD (designed binder)
chain: B15 chain with G72A, S73N, V74P, R75A, G76Q, R77D, T78L, I104F
notes: C-terminal tag not specified
B20: 001-69.4E5 monomeric CTLD (designed binder)
chain: B15 chain with S73N, V74P, R75S, R77S, T78V, I104Y
notes: C-terminal tag not specified; not shown: Also the vector's N-terminal AGGGS after the pelB signal
B21: 001-87.A5F monomeric CTLD (designed binder, not shown: small tags and cut ends)
chain: B15 chain with G76S, R77A, I104F, V106Y, W107F
notes: C-terminal tag not specified
B22: 001-87.A4A monomeric CTLD (designed binder)
chain: ALQTVCLKGTKVHMKCFLAFTQTKTFHEASEDCISRGGTLSTPQTGSENDALYEYLRQSVGNEAEIWLGLNWTLAKNLWVDMTGARIAYKNWETEITAQPDGGLFGRGENCAVLSGAANGKWFDKRCRDQLPYICQFGIV
notes: C-terminal tag not specified
B23: 001-89.C12E monomeric CTLD (designed binder)
chain: B22 chain with L74K, A75R, K76T, N77A, L104M, R107M
notes: C-terminal tag not specified
B24: 001-69.4F5 monomeric CTLD (designed binder)
chain: ALQTVCLKGTKVHMKCFLAFTQTKTFHEASEDCISRGGTLSTPQTGSENDALYEYLRQSVGNEAEIWLGLNVLGWRREWVDMTGARIAYKNWETEITAQPDGGLVMPMENCAVLSGAANGKWFDKRCRDQLPYICQFGIV
notes: as for B20
B25: 001-89.C3C monomeric CTLD (designed binder)
chain: B15 chain with G72A, S73N, V74R, G76R, R77T, T78M, I104M
notes: C-terminal tag not specified
B26: 001-69.3C2 monomeric CTLD (designed binder)
chain: B15 chain with G72T, S73N, R75T, G76R, R77T, T78L, I104L
notes: C-terminal tag not specified

Each binder was assayed against T1, recombinant human IL-23R/Fc chimera (R&D Systems) (human, UniProt Q5VWK5 24-355) (assay: competition ELISA vs IL-23).
T1 construct: Bought; also called rhIL23RFc
T1 sequence (looked up): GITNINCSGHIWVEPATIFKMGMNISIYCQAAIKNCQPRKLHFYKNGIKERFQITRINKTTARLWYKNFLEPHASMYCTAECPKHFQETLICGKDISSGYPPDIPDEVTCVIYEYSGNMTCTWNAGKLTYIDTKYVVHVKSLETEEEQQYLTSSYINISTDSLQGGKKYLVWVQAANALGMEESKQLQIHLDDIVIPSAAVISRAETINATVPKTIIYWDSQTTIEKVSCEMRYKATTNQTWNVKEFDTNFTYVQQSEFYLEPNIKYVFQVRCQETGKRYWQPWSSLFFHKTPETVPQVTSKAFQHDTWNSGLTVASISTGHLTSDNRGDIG
Procedure: Assays were performed generally as follows. Individual wells in Immulon HB2 plates were incubated overnight at 4° C. with 100 μL PBS containing 100 ng of an anti-human IgG Fc (R&D MAB 110 clone 97924). Plates were washed five times with PBS/0.05% Tween 20, and wells were incubated for 1.5 h at RT with 100 μL each of PBS containing 50 ng of recombinant human IL-23R/Fc. […] Competitor was included at a final concentration of 1 μg/mL. After incubation, plates were washed as described and wells were incubated for 40 min at RT with 100 μL each of PBS containing a 1:5000 dilution of streptavidin-HRP conjugate (Pierce catalog no. 21130). After washing, wells were incubated with 100 μL each of TMB (BioFX Lab catalog no. TMBH-1000-0) for up to 30 min at RT. Reactions were stopped with an equal volume of 0.2 M sulfuric acid.

Binder | Ratio IC50 to 056-53.H4E IC50
B1 | 4.1
B2 | 3.3
B3 | 3.6
B4 | 4.3
B5 | 3.3
B6 | 4.1
B7 | 4.7
B8 | 2.9

The binders below were run against T1, recombinant human IL-23R/Fc chimera … (assay: SPR).
Procedure: A Biacore 3000 biosensor (GE Healthcare) was used to evaluate the interaction of human IL-23R and receptor binders. Immobilization of an anti-human IgG Fc antibody (GE Healthcare) to the CM5 chip (GE Healthcare) was performed using standard amine coupling chemistry, and this modified surface was used to capture a recombinant human IL-23R/Fc fusion protein (R&D Systems). A low-density receptor surface, less than 200 RU, was used for all of the analyses. ATRIMER™ polypeptide complex dilutions (1-500 nM) were injected over the IL-23R surface at 30 μl/min and kinetic constants were derived from the sensorgram data using the Biaevaluation software (version 3.1, GE Healthcare). Data collection was 3 minutes for the association and 5 minutes for dissociation. The anti-human IgG surface was regenerated with a 30s pulse of 3M magnesium chloride. All sensorgrams were double-referenced against an activated and blocked flow-cell as well as buffer injections.

Binder | Ka [M⁻¹] | Kd [nM] | koff [s⁻¹] | kon [M⁻¹ s⁻¹]
B9 | 2.1e+08 | 4.76 | 0.000751 | 158000
B10 | 4.47e+08 | 2.24 | 0.000545 | 244000
B11 | 2.19e+08 | 4.57 | 0.0007 | 153000
B12 | 1.24e+08 | 8.08 | 0.000409 | 50600
B13 | 1.94e+08 | 5.15 | 0.000478 | 92800
B14 | 1.2e+08 | 8.34 | 0.000483 | 57900
B15 | 6.76e+06 | 148 | 0.00419 | 28300
B16 | 6.75e+06 | 148 | 0.00531 | 35800
B17 | 9.29e+06 | 108 | 0.0041 | 38100
B18 | 1.83e+07 | 54 | 0.00783 | 143000
B19 | 7.09e+06 | 141 | 0.00757 | 53700
B20 | 2.82e+06 | 355 | 0.0161 | 45400
B21 | 4.11e+07 | 24.3 | 0.00415 | 170000
B22 | 5.18e+06 | 193 | 0.0229 | 118000
B23 | 5.62e+06 | 178 | 0.0074 | 41600
B24 | 4.12e+06 | 243 | 0.00571 | 23500
B25 | 5.34e+06 | 187 | 0.0158 | 84500
B26 | 5.39e+06 | 186 | 0.00741 | 39900
